The target of assay [1] is T1, mouse AFP158 peptide/HLA-A*02:01 complex on T2 cells (human; mouse).
T1 construct: also called mouse AFP158-loaded T2 cells
The assay is described as follows: FACS, phage clone on peptide-loaded T2 cells.

In assay [2] the target is T2, AFP158/HLA-A*02:01 complex presented on cells (human).
T2 construct: the cell line used is named under assay in each row; also called AFP158-loaded T2 cells; human AFP158-loaded T2 cells
Description: FACS of scFv phage on AFP158 peptide-loaded T2 cells, anti-M13 mAb and R-PE anti-mouse IgG.
Description: (§1) Specific and unique clones were further tested for their binding to HLA-A2/peptide complexes on live cell surfaces by flow cytometry (FACS analysis) using AFP158-loaded live T2 cells. T2 cells loaded with different peptides and β2M were first stained with purified scFv phage clones, followed by staining with a mouse anti-M13 mAb, and finally the R-PE conjugated horse anti-mouse IgG from Vector Labs. Each step of the staining was done between 30-60 minutes on ice and the cells were washed twice between staining.

In assay [3] the target is T3, HLA-A*02:01 on T2 cells with β2M but without peptide loaded (human).
T3 construct: control without added peptide; also called β2M-loaded T2 cells
Description: FACS of scFv phage on β2M-loaded T2 cells without peptide.
Description: as §1

In assay [4] the target is T4, hTERT540 peptide (…)/HLA-A*02:01 on T2 cells (human).
T4 construct: control peptide-MHC; also called β2M/hTERT peptide-loaded T2 cells
The assay is described as follows: FACS of scFv phage on hTERT peptide-loaded T2 cells.
Description: as §1

The target of assay [5] is T1, mouse AFP158 peptide/HLA-A*02:01 …. The assay is described as follows: FACS of scFv phage on mouse AFP158 peptide-loaded T2 cells.
The next assay addresses T5, recombinant AFP protein (UniProt P02771 19-609, limits assumed).
T5 construct: also called AFP recombinant protein
T5 sequence (looked up): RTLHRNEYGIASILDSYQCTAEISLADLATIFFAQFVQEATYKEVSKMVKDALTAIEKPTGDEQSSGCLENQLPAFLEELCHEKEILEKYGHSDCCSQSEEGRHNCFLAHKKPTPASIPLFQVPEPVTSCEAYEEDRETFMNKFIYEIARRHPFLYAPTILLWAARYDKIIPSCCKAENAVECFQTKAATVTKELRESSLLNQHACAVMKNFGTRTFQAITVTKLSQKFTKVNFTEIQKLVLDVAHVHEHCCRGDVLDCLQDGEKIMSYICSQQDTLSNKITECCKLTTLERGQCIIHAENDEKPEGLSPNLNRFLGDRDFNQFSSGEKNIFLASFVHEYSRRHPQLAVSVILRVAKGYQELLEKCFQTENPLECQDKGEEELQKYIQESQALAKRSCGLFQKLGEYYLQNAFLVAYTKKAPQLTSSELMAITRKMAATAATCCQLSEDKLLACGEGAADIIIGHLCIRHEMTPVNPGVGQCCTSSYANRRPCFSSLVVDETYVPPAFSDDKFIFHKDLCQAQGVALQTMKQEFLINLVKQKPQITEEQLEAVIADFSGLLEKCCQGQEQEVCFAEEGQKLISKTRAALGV
The assay is described as follows: ELISA on AFP protein coated at 2 µg/mL. (In general: An ELISA detects its analyte on a solid surface through an enzyme-linked reagent.)

In assay [6] the target is T2, AFP158/HLA-A*02:01 complex presented on …. Description: FACS, phage clone on peptide-loaded T2 cells. In general terms: A flow cytometer gives signals particle by particle.
Assay [7] deals with T6, hAFP158 A8 peptide (…)/HLA-A*02:01 on T2 cells (human).
T6 construct: also called Ala Position 8
The assay is described as follows: FACS, scFv phage clone on peptide-loaded T2 cells.
Description: (§2) Antibody phage clones were then tested for binding to these peptide-loaded T2 cells by FACS analysis.

In assay [8] the target is T7, hAFP158 A3 peptide (…)/HLA-A*02:01 on T2 cells (human).
T7 construct: also called Ala Position 3
Description: FACS, scFv phage clone on peptide-loaded T2 cells.
Description: as §2

In assay [9] the target is T8, hAFP158 A1 peptide (…)/HLA-A*02:01 on T2 cells (human).
T8 construct: also called Ala Position 1
Description: FACS, scFv phage clone on peptide-loaded T2 cells.
Description: as §2

The target of assay [10] is T9, hAFP158 A5 peptide (…)/HLA-A*02:01 on T2 cells (human).
T9 construct: also called Ala Position 5
Description: FACS, scFv phage clone on peptide-loaded T2 cells.
Description: as §2

The target of assay [11] is T10, hAFP158 A7 peptide (…)/HLA-A*02:01 on T2 cells (human).
T10 construct: also called Ala Position 7
Description: FACS, scFv phage clone on peptide-loaded T2 cells.
Description: as §2

The target of assay [12] is T11, hAFP158 A4 peptide (…)/HLA-A*02:01 on T2 cells (human).
T11 construct: also called Ala Position 4
Description: FACS, scFv phage clone on peptide-loaded T2 cells.
Description: as §2

Assay [13] has as its target T2, AFP158/HLA-A*02:01 complex presented on …. The assay is described as follows: FACS, scFv phage clone on peptide-loaded T2 cells.
Description: as §2
Assay [14] concerns the target T12, hAFP158 A6 peptide (…)/HLA-A*02:01 on T2 cells (human).
T12 construct: also called Ala Position 6
Description: FACS, scFv phage clone on peptide-loaded T2 cells.
Description: as §2

Experimental findings from patent US20180208658A1 (EUREKA THERAPEUTICS, published 2018) are described below.

Description for recombinant AFP protein: Antibodies were tested at 3× serial dilution, starting from 100 ng/mL, for a total of 8 concentrations. Biotinlyated AFP158/A*02:01 MHC was coated onto streptavidin plates at 2 μg/mL, AFP protein was coated at 2 μg/mL and AFP158 peptide was coated at 40 ng/mL.

B1: AFP158/HLA-A*02:01-specific scFv phage clone #48 (scFv, V domains shown)
VH: EVQLVESGGGLVQPGRSLRLSCAASGFTFDDYAMHWVRQAPGKGLEWVSGISWNSGRIGYADSVKGRFTISRDNAKNSLYLQMNSLRAEDTAVYYCARADDYGAPYYYYGMDVWGQGTTVTVSS
VL: QSVLTQPPSVSGAPGQRVTISCTGSSSNIGAGYDVHWYQQLPGTAPKLLIYGNSNRPSGVPDRFSGSKSGTSASLAITGLQAEDEADYYCQSYDSSLSGSVFGTGTKVTVLG
Take B1: the binding result in assay [1] is “binds”; in assay [2] it was “binds”; in assay [3] it was “no binding”; in [4], “no binding”.

B2: #44 (scFv, V domains shown, not shown: large carriers; small tags and cut ends)
VH: QVQLVQSGAEVKKPGSSVKVSCKASGGTFSSYAISWVRQAPGQGLEWMGGIIPIFGTANYAQKFQGRVTITADESTSTAYMELSSLRSEDTAVYYCAREIRGYYYYYGMDVWGQGTTVTVSS
VL: SYELTQPPSVSVAPGKTARITCGGDNIGTKSVTWYQQRPGQAPMMVIYYDTVRPSGIPERLSGSNSGNTATLTITRVEAGDEADYYCQVWDSSSDHPVFGGGTKLTVL
notes: also called Clone 44; AFP158/HLA-A*02:01-specific scFv phage clone #44; copies: 1 + 1
As to B2, the binding result in assay [2] is reported as “binds”; in assay [5], “no binding”; in assay [3] it was “no binding”; in assay [4], “no binding”.

B3: full-length AFP158 mouse chimeric IgG1 antibody 1402-61 (antibody, V domains shown)
VH: EVQLVQSGAEVKKPGESLTISCKASGYSFPNYWITWVRQMSGGGLEWMGRIDPGDSYTTYNPSFQGHVTISIDKSTNTAYLHWNSLKASDTAMYYCARYYVSLVDIWGQGTLVTVSS
VL: QSVLTQPASVSGSPGQSITISCTGTSSDVGGYNYVSWYQQHPGKAPKLMIYDVNNRPSEVSNRFSGSKSGNTASLTISGLQAEDEADYYCSSYTTGSRAVFGGGTKLTVLG
notes: bivalent IgG
As to B3, the binding result with recombinant AFP protein is on record as “no binding (tested: 100 ng/mL)”.

B4: full-length AFP158 mouse chimeric IgG1 antibody 1402-79 (antibody, V domains shown)
VH: QMQLVQSGGGLVQPGRSLRLSCAASGFTFDDYAMHWVRQAPGKGLEWVSGISWNSGSIGYADSVKGRFTISRDNAKNSLYLQMNSLRAEDTALYYCAKDIHSGSYYGLLYYAMDVWGQGTTVTVSS
VL: QSVLTQPPSVSGAPGQRVTISCTGSSSNIGAGYDVHWYQQLPGTAPKLLIFGNSNRPSGVPDRFSGFKSGTSASLAITGLQAEDEADYFCQSYDSSLSGSGVFGTGTKVTVLG
notes: bivalent IgG
For B4, the binding result in the assay with recombinant AFP protein is recorded as “no binding (tested: 100 ng/mL)”.

B5: #50 (scFv, V domains shown, not shown: large carriers; small tags and cut ends)
VH: QVQLQESGPGLVKPSGTLSLTCAVSGGSISSSNWWSWVRQPPGKGLEWIGEIYHSGSTNYNPSLKSRVTISVDKSKNQFSLKLSSVTAADTAVYYCATGYGGYFDYWGQGTLVTVSS
VL: QSVLTQPPSVSVAPGKTARITCGGNNIGSKSVHWYQQKPGQAPVLVIYYDSDRPSGIPERFSGSNSGNTATLTISRVEAGDEADYYCQVWDSSSDHVVFGGGTKLTVL
notes: also called Clone 50; AFP158/HLA-A*02:01-specific scFv phage clone #50; copies: 1 + 1
As to B5, the binding result in assay [2] is given as “binds”; in assay [3], “no binding”; in assay [4], “no binding”.

B6: full-length AFP158 mouse chimeric IgG1 antibody 1402-76 (antibody, V domains shown)
VH: EVQLVESGGGLVKPGGSLRLSCAASGFTFSNAWMSWVRQAPGKGLEWVGFIRSKAYGGTTEYAASVKGRFTISRDDSKSIAYLQMNNLKTEDTAVYYCARDGLYSSSWYDSDYWGQGTLVTVSS
VL: QSVVTQPPSVSAAPGQKVTISCSGSSSNIGNNYVSWYQQLPGTAPKLLIYDNNKRPSGIPDRFSGSKSGTSATLGITGLQTGDEADYYCGTWDGSLYTMLFGGGTKLTVLG
notes: bivalent IgG
As to B6, the binding result with recombinant AFP protein is listed as “no binding (tested: 100 ng/mL)”.

B7: AFP158/HLA-A*02:01-specific scFv phage clone #33 (scFv, V domains shown)
VH: QVQLQQSGPGLVKPSQTLSLTCAISGDSVSSNSAAWNWIRQSPSRGLEWLGRTYYRSKWYNDYAVSVKSRITINPDTSKNQFSLQLNSVTPEDTAVYYCARGSYYSGRYDAWGQGTLVTVSS
VL: NFMLTQPHSVSESPGKTVTISCTRSSGSIASNYVQWYQQRPGSSPTTVIYEDNQRPSGVPDRFSGSIDSSSNSASLTISGLKTEDEADYYCQSYDSSTVVFGGGTKLTVLG
As to B7, the binding result was “binds” in assay [1], “binds” in assay [2], “no binding” in assay [3] and “no binding” in assay [4].

B8: AFP158/HLA-A*02:01-specific scFv phage clone #17 (scFv, V domains shown)
VH: EVQLVQSGAEVKKPGASVKVSCKASGYTFTSYGISWVRQAPGQGLEWMGWISAYNGNTNYAQKLQGRVTMTTDTSTSTAYMELRSLRSDDTAVYYCARYQDWWYLGQFDQWGQGTLVTVSS
VL: QSALTQPASVSGSPGQSITISCTATGSDVGVYYYVSWYQQHPGKAPKVMIYDVGNRPPGVSNRFSGSKSGNTASLTISGLQAEDEADYYCASYTNRNSLGYVFGTGTKVTVLG
B8: the binding result in assay [1] and in assay [6] was “binds” throughout.

B9: AFP158/HLA-A*02:01-specific scFv phage clone #17-13 (scFv, V domains shown)
VH: EVQLVQSGAEVKKPGASVKVSCKASGYTFTSYGISWVRQAPGQGLEWMGWISAYNGNTNYAQKLQGRVTMTTDTSTSTAYMELRSLRSDDTAVYYCARFQDWWYLGQFDQWGQGTLVTVSS
VL: QSALTQPASVSGSPGQSITISCTATGSDVGVYYYVSWYQQHPGKAPKVMIYDVDNRPPGVSNRFSGSKSGNTASLTISGLQAEDEADYYCASYTNRNSLGYVFGTGTKVTVLG
notes: also called AM1402-17-13
In the case of B9, the “FACS binding signal (name and unit not given)” value in assay [7] was 43200; in assay [8], 2910; in [9], 55600; in [10], 1500; in assay [11], 572; in assay [12] it was 50800. The “FACS binding signal (name and unit not given)” value in assay [13] amounted to 83300; in assay [14] it was 28800.
